The values that follow come from publication PMC11930357.

The target in experiment [1] is Phosphorylated CSD deletion mutant of HP1α_S97A (residues 1–120, phosphorylated at Ser11–Ser14) (human) (UniProt P45973). The experiment is described as follows: SEC-SAXS; Superdex 200 Increase, 20 mM sodium phosphate pH 7.0, 1 mM DTT, 50 mM NaCl; Rg against concentration; profiles fitted with EOM and with reweighted CGMD ensembles (one- or two-molecule systems). Background: SEC sorts molecules by how far they enter the pores of the column.

A further experiment concerns the target HP1α ΔCSD, 1-120 (UniProt P45973). The experiment is described as follows: SEC-MALS molar mass. The following applies: reference: ΔCSD expressed without CK2; sites S11,S12,S13,S14.
The target of a further experiment is HP1α (UniProt P45973). Put plainly: SEC-MALS molar mass (CSD-mediated dimer). The following applies: sites S11,S12,S13,S14.

Chain of HP1α (P45973 whole entry, change not shown): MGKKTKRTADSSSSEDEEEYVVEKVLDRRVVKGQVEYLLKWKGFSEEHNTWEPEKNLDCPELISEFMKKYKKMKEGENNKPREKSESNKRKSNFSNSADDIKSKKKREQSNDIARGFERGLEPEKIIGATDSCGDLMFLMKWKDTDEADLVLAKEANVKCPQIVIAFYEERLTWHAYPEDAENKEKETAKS
Chain of HP1α ΔCSD, 1-120 (P45973 whole entry, stated change not applied): as the sequence (P45973 whole entry, change not shown) above

Usually stoichiometry N stands for a count of units in the complex or per binding partner. “Phosphorylated CSD deletion mutant of HP1α_S97A (residues 1–120, phosphorylated at Ser11–Ser14) (from UniProt P45973 1-120) (domain or fragment)” showed a stoichiometry N in experiment [1] of 2.
Take “HP1α ΔCSD, 1-120 (from UniProt P45973) pΔCSD co-expressed with CK2”: in the experiment with HP1α ΔCSD, 1-120, the “other: molar mass” value is “none in both; reference 16.3”.
With “HP1α (from UniProt P45973) pHP1α co-expressed with CK2, 500 mM NaCl”, the “other: molar mass” value in the experiment with HP1α (reference: HP1α expressed without CK2, 500 mM NaCl) is listed as “same; reference 44.5”.
Take “HP1α (from UniProt P45973) pHP1α co-expressed with CK2, 50 mM NaCl”: in the experiment with HP1α (reference: HP1α expressed without CK2, 50 mM NaCl), the “other: molar mass” value is “same; reference 45.7”.
